Results taken from patent US20020025569A1 (GPC BIOTECH, published 2002).

T1: GST-fusion protein containing amino acids 696-902 of human cdc4
T1 sequence: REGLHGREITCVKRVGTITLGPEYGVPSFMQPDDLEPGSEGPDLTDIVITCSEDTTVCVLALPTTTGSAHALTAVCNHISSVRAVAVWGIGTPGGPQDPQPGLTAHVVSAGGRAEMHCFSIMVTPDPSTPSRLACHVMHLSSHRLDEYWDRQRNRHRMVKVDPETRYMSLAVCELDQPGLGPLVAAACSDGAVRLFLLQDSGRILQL


Experiments:
[1] = test system: T1, GST-fusion protein containing amino acids 696-902 of human cdc4
[2] = target: T2, human p19 skp1, expressed as a LexA fusion protein from vector pBTM116 (human, UniProt P63208 1-163, limits assumed); assay: yeast two-hybrid (LexA-skp1 bait, mouse cDNA-VP16 library)
T2 construct: Bait of the yeast two-hybrid screen in S. cerevisiae L40; also called human skp1
T2 sequence (P63208 whole entry, the tested form may be a part): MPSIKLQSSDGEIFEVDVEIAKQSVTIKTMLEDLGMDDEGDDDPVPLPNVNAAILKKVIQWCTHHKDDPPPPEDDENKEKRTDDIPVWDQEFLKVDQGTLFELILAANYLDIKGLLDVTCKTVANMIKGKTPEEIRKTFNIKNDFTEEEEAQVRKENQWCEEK
Method: A full length cDNA encoding a mouse homolog of yeast cdc4 protein was cloned through its ability to specifically interact with human p19 skp1 in a yeast two hybrid system. Briefly, human skp1 was cloned into the vector pBTM116 for expression as a LexA fusion protein. This construct was transformed into S. Cerevisiae strain L40 (MATa his3 200 trp1-900 leu2-3,112 ade LYS2::lexAop)₄-HIS3 URA3::(lexAop)₈-lacZ GAL4). Skp1 interacting clones were selected in the presence of 1 mM 3-aminotriazole after transformation of a mouse cDNA-VP16 fusion library. Specificity of the interacting clones was assessed with the D. Melanogaster daughterless gene.

| Molecule | in vitro ubiquitination reaction (E1, E2, biotinylated ubiquitin; streptavidin-HRP after non-reducing SDS-PAGE) [1] | binding result [2] |
| --- | --- | --- |
| UBC2 | though to a lesser extent, UBC2 | – |
| UBC4 | cdc4 polypeptide was found to be ubiquitinated by UBC4 | – |
| mouse cdc4 (clone from a mouse cDNA-VP16 fusion library; 486 base pair fragment) (other, not shown: large carriers, VP16 is placed first from knowledge of such libraries; also called mu-cdc4; mcdc4) TFTHEAPNQRRRLILCSAATDGSLAFWDLTTAMDKGSTTLELPAHPGLPYQMGTPSMTVQAHSCGVNSLHTLPTPEGHHLVASGSEDGSLHVFTLAVKMPEPEEADGEAELVPQLCVLEEYSVPCAHAAHVTGVKILSPKLMVSASIDQRLTFWRLGQGEPP | – | binds |
